Measured values taken from publication PMC7330677.

Experiments:
CXCR4-FlAsH228 (human) = CXCR4-FlAsH228 (human) (UniProt P61073)
Human CXCR4 (human) = Human CXCR4 (human) (UniProt P61073)

EC50 of CXCL12 for Gi1 activation, one representative experiment of Fig. 1D (CXCR4-FlAsH228 (human)): 14.7 nM
EC50 of CXCL12 for Gi1 activation, one representative experiment of Fig. 1D (Human CXCR4 (human)): 3.3 nM
Substance: Recombinant human CXCL12 (from UniProt P48061 22-93) (ligand)
